# PMC10877131 (JHEP Reports, 2024)
# B1: Thrombospondin-2 (THBS2), overexpressed in LX-2 cells, in conditioned media (natural protein)
# chain: not shown
# Molecular target: the molecule itself
# Test: immunoblot
protein,measurement,value
B1,stoichiometry N,2
